This passage reports abundance fitness results from the Human Domainome abundance scans (Beltran et al. 2025).

B1: Transcriptional regulator ERG, residues 117 to 197; numbered along this chain, P11308 (parent)
chain: NMTTNERRVIVPADPTLWSTDHVRQWLEWAVKEYGLPDVNILLFQNIDGKELCKMTKDDFQRLTPSYNADILLSHLHYLRE

± gives the uncertainty stated by the source.

The variants in the series derive from B1. The experiment in a line: abundance fitness (aPCA) (normalised: wild type 0, dead -1); higher = more abundant; growth selection in yeast, the domain comes from the species named. As to conditions: Homo sapiens.
With NMTTNERRVIVPADPTLWSTDHVRQWLEWAVKEYGLPDVNILLFQNIDGKELCKMTKDDFQRLTPSYNADILPSHLHYLRE [L73P], the abundance fitness was -0.634 ± 0.2.

In the case of NMTTNERRVIVPADPTLWSTDHVRQWLEWAVKEYGLPDVNILLFQNIDGKELCKMTKDDFQRLTPSYNADILISHLHYLRE [L73I], the abundance fitness is -0.034 ± 0.16.

NMTTNERRVIVPADPTLWSTDHVRQWLEWAVKEYGLPDVNILLFQNIDGKELCKMTKDDFQRLTPSYNADILWSHLHYLRE [L73W]: the abundance fitness was -0.028 ± 0.056.

Consider NMTTNERRVIVPADPTLWSTDHVRQWLEWAVKEYGLPDVNILLFQNIDGKELCKMTKDDFQRLTPSYNADILYSHLHYLRE [L73Y], for which the abundance fitness is -0.054 ± 0.17.

For NMTTNERRVIVPADPTLWSTDHVRQWLEWAVKEYGLPDVNILLFQNIDGKELCKMTKDDFQRLTPSYNADILCSHLHYLRE [L73C], the abundance fitness is 0.075 ± 0.092.

Take NMTTNERRVIVPADPTLWSTDHVRQWLEWAVKEYGLPDVNILLFQNIDGKELCKMTKDDFQRLTPSYNADILDSHLHYLRE [L73D]: the abundance fitness was -0.156 ± 0.12.

For NMTTNERRVIVPADPTLWSTDHVRQWLEWAVKEYGLPDVNILLFQNIDGKELCKMTKDDFQRLTPSYNADILASHLHYLRE [L73A], the abundance fitness worked out at 0.023 ± 0.052.

With NMTTNERRVIVPADPTLWSTDHVRQWLEWAVKEYGLPDVNILLFQNIDGKELCKMTKDDFQRLTPSYNADILSSHLHYLRE [L73S], the abundance fitness was -0.063 ± 0.061.

As for NMTTNERRVIVPADPTLWSTDHVRQWLEWAVKEYGLPDVNILLFQNIDGKELCKMTKDDFQRLTPSYNADILQSHLHYLRE [L73Q], the abundance fitness is -0.144 ± 0.093.

On to NMTTNERRVIVPADPTLWSTDHVRQWLEWAVKEYGLPDVNILLFQNIDGKELCKMTKDDFQRLTPSYNADILESHLHYLRE [L73E], for which the abundance fitness was -0.293 ± 0.081.

In the case of NMTTNERRVIVPADPTLWSTDHVRQWLEWAVKEYGLPDVNILLFQNIDGKELCKMTKDDFQRLTPSYNADILVSHLHYLRE [L73V], the abundance fitness was -0.028 ± 0.057.

Turning to NMTTNERRVIVPADPTLWSTDHVRQWLEWAVKEYGLPDVNILLFQNIDGKELCKMTKDDFQRLTPSYNADILRSHLHYLRE [L73R], the abundance fitness is -0.039 ± 0.043.

In the case of NMTTNERRVIVPADPTLWSTDHVRQWLEWAVKEYGLPDVNILLFQNIDGKELCKMTKDDFQRLTPSYNADILNSHLHYLRE [L73N], the abundance fitness is -0.201 ± 0.16.

NMTTNERRVIVPADPTLWSTDHVRQWLEWAVKEYGLPDVNILLFQNIDGKELCKMTKDDFQRLTPSYNADILTSHLHYLRE [L73T]: the abundance fitness is -0.016 ± 0.059.

In the case of NMTTNERRVIVPADPTLWSTDHVRQWLEWAVKEYGLPDVNILLFQNIDGKELCKMTKDDFQRLTPSYNADILHSHLHYLRE [L73H], the abundance fitness was -0.061 ± 0.091.

As to NMTTNERRVIVPADPTLWSTDHVRQWLEWAVKEYGLPDVNILLFQNIDGKELCKMTKDDFQRLTPSYNADILKSHLHYLRE [L73K], the abundance fitness was -0.292 ± 0.093.

On to NMTTNERRVIVPADPTLWSTDHVRQWLEWAVKEYGLPDVNILLFQNIDGKELCKMTKDDFQRLTPSYNADILGSHLHYLRE [L73G], for which the abundance fitness was -0.183 ± 0.047.

Regarding NMTTNERRVIVPADPTLWSTDHVRQWLEWAVKEYGLPDVNILLFQNIDGKELCKMTKDDFQRLTPSYNADILMSHLHYLRE [L73M], the abundance fitness was determined as 0.015 ± 0.074.

With NMTTNERRVIVPADPTLWSTDHVRQWLEWAVKEYGLPDVNILLFQNIDGKELCKMTKDDFQRLTPSYNADILLSHHHYLRE [L76H], the abundance fitness is -0.237 ± 0.25.

NMTTNERRVIVPADPTLWSTDHVRQWLEWAVKEYGLPDVNILLFQNIDGKELCKMTKDDFQRLTPSYNADILLSHMHYLRE [L76M]: the abundance fitness was -0.262 ± 0.13.

As to NMTTNERRVIVPADPTLWSTDHVRQWLEWAVKEYGLPDVNILLFQNIDGKELCKMTKDDFQRLTPSYNADILLSHPHYLRE [L76P], the abundance fitness was -0.923 ± 0.3.

As for NMTTNERRVIVPADPTLWSTDHVRQWLEWAVKEYGLPDVNILLFQNIDGKELCKMTKDDFQRLTPSYNADILLSHCHYLRE [L76C], the abundance fitness is -0.151 ± 0.1.

In the case of NMTTNERRVIVPADPTLWSTDHVRQWLEWAVKEYGLPDVNILLFQNIDGKELCKMTKDDFQRLTPSYNADILLSHGHYLRE [L76G], the abundance fitness was -0.802 ± 0.12.

On to NMTTNERRVIVPADPTLWSTDHVRQWLEWAVKEYGLPDVNILLFQNIDGKELCKMTKDDFQRLTPSYNADILLSHAHYLRE [L76A], for which the abundance fitness is -0.342 ± 0.14.

Consider NMTTNERRVIVPADPTLWSTDHVRQWLEWAVKEYGLPDVNILLFQNIDGKELCKMTKDDFQRLTPSYNADILLSHQHYLRE [L76Q], for which the abundance fitness is -0.928 ± 0.41.

For NMTTNERRVIVPADPTLWSTDHVRQWLEWAVKEYGLPDVNILLFQNIDGKELCKMTKDDFQRLTPSYNADILLSHNHYLRE [L76N], the abundance fitness is -0.794 ± 0.33.

Turning to NMTTNERRVIVPADPTLWSTDHVRQWLEWAVKEYGLPDVNILLFQNIDGKELCKMTKDDFQRLTPSYNADILLSHIHYLRE [L76I], the abundance fitness was 0.05 ± 0.32.

With NMTTNERRVIVPADPTLWSTDHVRQWLEWAVKEYGLPDVNILLFQNIDGKELCKMTKDDFQRLTPSYNADILLSHEHYLRE [L76E], the abundance fitness is -0.742 ± 0.27.

For the variant NMTTNERRVIVPADPTLWSTDHVRQWLEWAVKEYGLPDVNILLFQNIDGKELCKMTKDDFQRLTPSYNADILLSHKHYLRE [L76K], the abundance fitness is -0.519 ± 0.2.

Turning to NMTTNERRVIVPADPTLWSTDHVRQWLEWAVKEYGLPDVNILLFQNIDGKELCKMTKDDFQRLTPSYNADIVLSHLHYLRE [L72V], the abundance fitness is -0.471 ± 0.11.

On to NMTTNERRVIVPADPTLWSTDHVRQWLEWAVKEYGLPDVNILLFQNIDGKELCKMTKDDFQRLTPSYNADIYLSHLHYLRE [L72Y], for which the abundance fitness is -0.669 ± 0.18.

As for NMTTNERRVIVPADPTLWSTDHVRQWLEWAVKEYGLPDVNILLFQNIDGKELCKMTKDDFQRLTPSYNADIWLSHLHYLRE [L72W], the abundance fitness was -0.653 ± 0.087.

Turning to NMTTNERRVIVPADPTLWSTDHVRQWLEWAVKEYGLPDVNILLFQNIDGKELCKMTKDDFQRLTPSYNADISLSHLHYLRE [L72S], the abundance fitness was -0.801 ± 0.13.

As for NMTTNERRVIVPADPTLWSTDHVRQWLEWAVKEYGLPDVNILLFQNIDGKELCKMTKDDFQRLTPSYNADITLSHLHYLRE [L72T], the abundance fitness is -0.543 ± 0.12.
